Source: the DeepSol protein solubility set

Assay: soluble on expression in E. coli; label from the status in PepcDB or PDB records

| Sequence | soluble on expression in E. coli |
| --- | --- |
| SPPPKAGLPLQQELASGSALVTDQNTGKVLYSRNPDLVVPIASITKLMTAMVVLDSKLPLDEVLPIAISETSEMRGVFSRVRVGSQISRRDMLLLALMSSENRAAASLAQNYPGGKNAFVKAMNAKAHALGMKNTRYVEPTGLSLHNVSTARDLTRLLVASRQYPLLSQWSTTPEKTVAFRHPNYTLGFRNTNHLINNKTWNIQLTKTGFTNEAGHCLVMRTTINRSPVNLVVLDAFGKYTHFADATRLRRWLETGQVTAIPAAAKAYRLQRDRERGLGQPVAQAVR | soluble |
| SQPIATQELQLGDELANKAFAATNRGDFVAAEDYWTQIIEKFPINAGAWINRGNSRVSQNKLEAALTDYNKAIELAPNLTDPYLNRGTALEGLGKWEDAIADYNYVLALDPNDAMAYNNRGNAKTGLGKWEDAISDYQKATAIAPNFAFARANYALALYETGQTDKAIREMRNIVRKYPKFADMRAALTAAYWVGGQKGEAESNWVAAYGLDTRYKDMDWVTNIRRWPPSMVAALDKFLKLN | soluble |
| SRWQRDLTDSTVLRNMGVALGHTLLAYDSCLKGLGKLQADPARLSEDLQNAWEVLAEPIQTVMRRYGVANPYEQLKALTRGKTGIDRTTLQQFIEQLDIPAAERDRLLQLTPWGYI | not soluble |
| SSALIQTPSSLLVQTNHTAKMSCEVKSISKLTSIYWLRERQDPKDKYFEFLASWSSSKGVLYGESVDKKRNIILESSDSRRPFLSIMNVKPEDSDFYFCATVGSPKMVFGTGTKLTVVDVLPTTAPTKKTTLKMKKKKQCPFPHPETQKG | soluble |
| SSDLEDDETPQLSAHALAALQEFYAEQKQQIEPGEDDKYNIGIIEENWQLSQFWYSQETALQLAQEAIAAVGEGGRIACVSAPSVYQKLRELCRENFSIYIFEYDKRFAMYGEEFIFYDYNNPLDLPERIAAHSFDIVIADPPYLSEECLRKTSETVKYLTRGKILLCTGAIMEEQAAELLGVKMCTFVPRHTRNLANEFRCYVNYDSGLDCGI | soluble |
| SSGIHVALVTGGNKGIGLAIVRDLCRLFSGDVVLTARDVTRGQAAVQQLQAEGLSPRFHQLDIDDLQSIRALRDFLRKEYGGLDVLVNNAGIAFKVADPTPFHIQAEVTMKTNFFGTRDVCTELLPLIKPQGRVVNVSSIMSVRALKSCSPELQQKFRSETITEEELVGLMNKFVEDTKKGVHQKEGWPSSAYGVTKIGVTVLSRIHARKLSEQRKGDKILLNACCPGWVRTDMAGPKATKSPEEGAETPVYLALLPPDAEGPHGQFVSEKRVEQW | soluble |
| SSKAIPKQDIPEIAYERFTLPNGLTVIVHEDHKAPVIAVNVWYHIGSADEPARKTGFAHLFEHLMFSGSENHKASYFQPFEKIGATGMNGTTWFDRTNYFQTVPTTALDMALWMESDRMGHLLGAIGQKELDTQRGVVKNEKRQRENVPYGRVTQNILSNLFPANHPYQHSTIGSMEDLEAASLADVKSWFQAHYGAANATLVLAGDITLAEARDKAAKYFGDIPAGPPVA | not soluble |
| SSLYRLFQSSKRPFASFSAPLVRFTNSRCVSAVLSRKETAPSSIYGNRVSRVSGFGALDIRSLNFSTKSSQINDAGSIDQTLMQSMELKIKEQLNAESVTVTDMSGDGRHVCINVVSSAFEGQSAVNRQRMVYKAIWEELQNVVHAVDQMTTKTPSEV | soluble |
| SSNAKADQASSDAQTANAKADQASNDANAARSDAQAAKDDAARANQRADNAA | soluble |
| SSQTGEKGKFPDAAGYVGFANLPNQVHRKSVKKGFEFTLMVVGESGLGKSTLINSLFLTDLYPERYIPGAAEKIERTVQIEASTVEIEERGVKLRLTVVDTPGYGDAINSQDCFKTIIQYIDNQFERYLHDESGLNRRHIVDNRVHCCFYFISPFGHGLKPLDVEFMKAIHSKVNIVPVIAKADTLTLKERDRLKRRILDEISEHGIRIYQLPDADSDEDEEFKDFVPNRCIWSSLQFYQMHIIAITFIDIMFVFKKAAHVISTTIIMVKLNIKCQ | soluble |
| SSSNSEKEWHIVPVSKDYFSIPNDLLWSFNTTNKSINVYSKCISGKAVYSFNAGKFMGNFNVKEVDGCFMDAQKIAIDKLFSMLKDGVVLKGNKINDTILIEKDGEVKLKLIRGI | soluble |
| SSTQYSILFKQEHAHEDAIWTAAWGRSEKDGSETIVTGSLDDLVKVWKWSDEKLELQWTLEGHQLGVVSVNISQNGAIAASSSLDAHIRLWDLETGKQIKSMDAGPVDAWTVAFSPDSKYIATGSHLGKVNIFGVESGKKEHSLDTRGKFILSIAYSPDGKYLASGAIDGIINIFDIATGKLLHTLEGHAMPIRSLTFSPDSQLLVTASDDGYIKIYDVQHANLAGTLSGHGSWVLSVAFSPDDTHFVSSSSDKSIKVWDTSSRSCVNTFFDHQDQVWSVKYNPTGSKIVSAGDDRAIHIYDCPM | soluble |
| SSVNYAAGLSPYADKGICGLPETFDSPEELKTKVETLAQWIRESQYMVVHSGAGISTSTGIPDFRGPNGVWTMEERGETPHFNTTFEDARPSLTHMALLQMQRTGHLKYLISQNVDGLHVRSGFPRDRLSELHGNMFVEECEKCGKQYVRDTVVGVMGLKPTGRYCDVMRSRGLRSCRGKLISSILDWEDSLPDRDLNRADEASRRADLALTLGTSLQIKPSGDLPLLTKRTGGKLVIVNLQPTKHDKHAHLRIYGYVDDVMGQLMKLLGLDVPEWAGPTLCEDSGGDLDILPYGAWKKEVKIELKIEESNHTVSKKRKRKEQHAEEGYKNGVKVEEEMKEEGKESDSHVHTHT | soluble |
| STARVICAGFGGQGVMSMGQLLTYAGMLEGKEVSWLPSYGPEMRGGTANCAVTVSNEPVGSPLITDDATAAILLNIPAFEKFKDDVIPGGKIIVNSSLIKEKVDRTDVDVYYIPANELAAELGNDKVANMIMLGAYLKVSDTVDIESVLEAFKKVFGPRKEKFVPLNREALQKGMDATC | not soluble |
| STKFPTLKRLFGEAQAAWLVKESEQAVLEIDAFCKQHHIDAQLSLKGVYYTATNHVQAGSMQPVVDELSRLGVNSWRRCKEDELHANTGSPRHLEGFHSSVAASVQPALLARGLRRVALEMGIEIFENTPMTKLDFGQPATVSTPDAQIKAKQVVLALNAWMVEHFTQFKNSIVVVSSDMVITKPLGESLRKTGWQAGTSVLDSRIFVHYYRDTPDGRLMLGKGGNQFSFNNQVDVMFNKPTRYQNLLRKSFDKLFPSLKEAEFEYSWTGGSDRSTSGFPFFGKLNEQRNVFYGFGYSGNGVAQTRMGGKILSSMVLGLDNEWTRSGLAKGPLGHFPPEPFRWIGAMTVRNAVRRKEEAEDCGQKPFIWDKWLAKLAGPAGKADKLD | not soluble |
| STLEIAGLVRKNLVQFGVGEKNGSVRWVMNALGVKDDWLLVPSHAYKFEKDYEMMEFYFNRGGTYYSISAGNVVIQSLDVGFQDVVLMKVPTIPKFRDITQHFIKKGDVPRALNRLATLVTTVNGTPMLISEGPLKMEEKATYVHKKNDGTTVDLTVDQAWRGKGEGLPGMCGGALVSSNQSIQNAILGIHVAGGNSILVAKLVTQEMFQNIDKKIESQ | soluble |
| STSTFQTRRRRLKKVEEEENAATLQLGQEFQLKQINHQGEEEELIALNLSEARLVIKEALVERRRAFKRSQKKTREKELESIDVLLEQTTGGNNKDLKNTMQYLTNFSRFRDQETVGAVIQLLKSTGLHPFEVAQLGSLACDTADEAKTLIPSLNNKISDDELERILKELSNLETLY | soluble |
| STVLIVSQEHQKIKTYINTVADRGVTEIPVKGGYSGTNQIMLMTTIAGYEFAKLQEAIAEIDETAFITVTPTSQASGRGFSLQKNHGRLDEDILMPM | not soluble |
| SYSVGQVAGFAGVTVRTLHHYDDIGLLVPSERSHAGHRRYSDADLDRLQQILFYRELGFPLDEVAALLDDPAADPRAHLRRQHELLSARIGKLQKMAAAVEQAMEARS | soluble |
| SYVQEHRLWGLMDKPHSAPCLMSLSLSFLICNKGRNAIRVQQSTDERMDAMLLWQCPTQGTRKNHESNSSLHHVPNWIFHSTIIPPNKGSKRCLRKVDWLLPRAGGVGGKRGVTADGDRVSF | soluble |
| TARELLDADRGRDSMVAAAYHSGTLSGKTVTEAARQGDVFAIEVFDDFAEWMGRALSIVCDVLDPGQIVIGGGLSTSSDLFLEKATQHMAQQIVGAGYRPLPTVVCAELGGDAGMIGVSDLARRRV | not soluble |
| TARKCLLEKVEVITGEEAESNVLQMQCKLFVFDKTSQSWVERGRGLLRLNDMASTDDGTLQSRLVMRTQGSLRLILNTKLWAQMQIDKASEKSIHITAMDTEDQGVKVFLISASSKDTGQLYAALHHRILALRSRVE | soluble |
| TASIGAAAILGAPIMHDFCHISLSDLMTPWEVIEKRLRLAAEADFVICLYNPRSKGRSEHLSKAFKIMGEFKGGDTPVGVVKDVGREKEEKFVCTFENMDFEKVDMTTMVIIGNKSTY | not soluble |
| TDKEEFALYCEAKNDKVRKRLGIKGGFYWTTAKKLSVAISRCITAMDDNDYDEDDFKKPVRVNLPVVDDLPPEGVFDTEFCNRYEKGGKDGITMTFIGPSPSVQDKPASTDNTNINGEAMTEIEESMLLPVSGQELPIRWLAQHGSEKPVTHVSRDELQALHIARAEELPAVTALAISHKTSLLDSL | not soluble |
| TDPDFLIRLATNLKEEKSKRLEAEQKIEAQRPKVLFADAVSDTEGTILIRDLAKLIQQNGVDIGEKRLFEWLRQNGYLISRRGTDYNRPTQKSMELGLFKIKETAIMRSSGAHTAITAKVTGKGQLYFVNKFLEQSLV | not soluble |
| TDQFGMIGLLTFIRAAETDPGMVHLALGSDLTTLGLNLNSPENLYPKFASPWASSPCRPQDIDFHVPSEYLTNIHIRDKLAAIKLGRYGEDLLFYLYYMNGGDVLQLLAAVELFNRDWRYHKEERVWITRAPGMEPTMKTNTYERGTYYFFDCLNWRKVAKEFHLEYDKLEERPHLPSTFNYNPAQQAF | soluble |
| TEETNVLVLCAGGGTSGLLANALNKAAEEYGAPVKAAAGSYGAHREILDQYQLVILAPQVASNYEDMKAETDKLGIKLAKTEGAQYIGLTRDGKGALAFVEEQFKD | not soluble |
| TELKPLLIELGTEELPVNALPNLSRAFFEGVLAGLERRGIVVDHGEAKSLSTPRRLAVLLTAVAVEQPKQYRELFGPYLNTAFDTEGKPTKALEGFAAKCGVNWRTLERIRDTKGERFVHRVVVPGERTDALLPGILTEAIAGMPIPKPMRWGAHEYLFARPVHWLVMLFGQDVVEAEIMGVKAGRISRGHRFLYDKPVSLSGPQNYIDVLQAAYVLVDPAARRARIVAEIEAVARQVGGVARITEDNVAQVVNLVEWPSAVLCSFERVFLEVPQEALIQTMEVNQKFFPVLDSLGKLTEKFIGIANIESNDVAEVAKGYERVIRPRFSDAKFFFNEDLKQGLKAMGERLRTVTYHAKLGTLADKVARVLVLAEAIAPQIGVDPLLARRVALLSKNDLQSRMVNEFPELQGVAGHHYALISGELPEVAMAIEDAYRPRFSGDEIARSPLGKVLGLAERLDTLACGFAVGMKPTGNKDPFGLRRNALGLARTIIESRFDLDLKVLLDQASDWVAFATTIEQERHAQESVKQSKKEAAVKHSVPQVSDEKSARIEELYDFIVERLRGYYADKGIPTTHFNAVAELKPVS | not soluble |
| THANIQGLVKHVDYMAFSDQDTFLSVSNYAFDAFTFDFYASMLNAARLIIADEHTLLDTERLTDLILQENVNVMFATTALFNLLTDAGEDWMKGLRCILFGGERASVPHVRKALRIMGPGKLINCYGPTEGTVFATAHVVHDLPDSISSLPIGKPISN | not soluble |
| TISQRPYRDRVIHLLALKAYKKPELLARLQKDGVNQKDKNSLGAILQQVANLNSKDLSYTLKDYVFKELQRDWPGYSEIDRRSLESVLSRKLN | soluble |
